Measurements from PMC9508527, “Two-component carnitine monooxygenase from Escherichia coli: functional characterization, inhibition and mutagenesis of the molecular interface” (Bioscience Reports, 2022).
Residue numbers refer to the chain shown, from its start. Names may count otherwise. Read-outs that look alike come from different tables or passages of the source.

Key:
[1] = target: T1, CntA (carnitine monooxygenase oxygenase component) (Acinetobacter baumannii, UniProt D0C9N6); assay: L-carnitine depletion assay with purified proteins; assay type: biochemical
T1 construct: with CntB (homologous system) or YeaX (chimeric system)

[2] = target: T2, YeaW (carnitine monooxygenase oxygenase component) (Escherichia coli, UniProt P0ABR7); assay: L-carnitine depletion and O2 depletion assays with purified proteins; assay type: biochemical
T2 construct: N-terminal strep tag II fusion; with YeaX

[3] = target: T2, YeaW (carnitine monooxygenase oxygenase component); assay: L-carnitine depletion assay with purified YeaX/YeaW; slow conversion to TMA also shown by GC-MS; assay type: biochemical
[4] = target: T3, YeaW, Rieske-type oxygenase component of carnitine monooxygenase from E. coli (E. coli) (UniProt P0ABR7)
T3 sequence: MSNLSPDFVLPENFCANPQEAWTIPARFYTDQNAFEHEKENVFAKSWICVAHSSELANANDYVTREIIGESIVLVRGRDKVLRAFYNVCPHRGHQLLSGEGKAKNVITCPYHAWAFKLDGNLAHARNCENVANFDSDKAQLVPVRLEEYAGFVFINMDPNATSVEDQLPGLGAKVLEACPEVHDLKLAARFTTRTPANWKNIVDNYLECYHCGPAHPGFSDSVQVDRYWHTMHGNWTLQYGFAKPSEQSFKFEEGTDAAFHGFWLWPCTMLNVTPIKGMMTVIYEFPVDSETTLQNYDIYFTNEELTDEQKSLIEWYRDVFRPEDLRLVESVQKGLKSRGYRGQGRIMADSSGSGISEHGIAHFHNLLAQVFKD

[5] = target: T3, YeaW, Rieske-type oxygenase component of carnitine monooxygenase from E. coli (E. coli); remark: listed apart in the source
[6] = target: T3, YeaW, Rieske-type oxygenase component of carnitine monooxygenase from E. coli (E. coli); remark: listed apart in the source
[7] = target: T3, YeaW, Rieske-type oxygenase component of carnitine monooxygenase from E. coli (E. coli); remark: listed apart in the source
[8] = target: the molecule itself; assay: SEC; analytical gel filtration, Superdex 200 increase 5/150 GL, 10 mM Hepes-NaOH pH 7.5, 150 mM NaCl, 0.45 ml min^-1, 20 µl samples (~300 µM), calibrated with protein standards

T2 sequence (P76254 whole entry, one chain of several, the tested form may be a part): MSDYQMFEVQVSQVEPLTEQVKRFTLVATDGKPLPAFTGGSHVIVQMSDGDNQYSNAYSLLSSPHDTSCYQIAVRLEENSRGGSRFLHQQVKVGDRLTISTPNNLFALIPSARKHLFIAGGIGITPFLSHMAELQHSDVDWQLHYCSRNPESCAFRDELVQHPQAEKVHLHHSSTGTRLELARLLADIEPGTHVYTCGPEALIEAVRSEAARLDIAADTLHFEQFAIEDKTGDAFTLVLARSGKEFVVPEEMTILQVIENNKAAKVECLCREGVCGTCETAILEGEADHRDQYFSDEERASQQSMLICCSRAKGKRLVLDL
T1 sequence (D0C9N6 whole entry): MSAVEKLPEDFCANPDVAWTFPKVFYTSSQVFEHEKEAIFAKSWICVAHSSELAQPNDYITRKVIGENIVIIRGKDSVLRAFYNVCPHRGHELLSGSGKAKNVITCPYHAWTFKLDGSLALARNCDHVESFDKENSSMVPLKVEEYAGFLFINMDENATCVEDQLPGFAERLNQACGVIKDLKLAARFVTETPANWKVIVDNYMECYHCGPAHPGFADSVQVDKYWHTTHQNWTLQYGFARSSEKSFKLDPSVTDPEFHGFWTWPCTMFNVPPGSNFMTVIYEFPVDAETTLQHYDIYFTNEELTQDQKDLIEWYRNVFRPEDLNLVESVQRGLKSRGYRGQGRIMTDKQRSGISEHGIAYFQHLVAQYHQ

Q: `C[N+](C)(C)C[C@H](O)CC(=O)[O-]` [L-carnitine] was tested. Which “L-carnitine depletion assay with purified proteins” value [1] did it give?
A: 353 ± 68 nmol/min/mg

Q: And the “L-carnitine depletion and O2 depletion assays with purified proteins” value [2]?
A: 1288 ± 48 nmol/min/mg

Q: With `C[N+](C)(C)NCCC(=O)[O-]` [meldonium] as the molecule, how does the IC50 [3] read?
A: 612 ± 68 µM

B1: YeaX variant K313Q (enzyme)
chain: MSDYQMFEVQVSQVEPLTEQVKRFTLVATDGKPLPAFTGGSHVIVQMSDGDNQYSNAYSLLSSPHDTSCYQIAVRLEENSRGGSRFLHQQVKVGDRLTISTPNNLFALIPSARKHLFIAGGIGITPFLSHMAELQHSDVDWQLHYCSRNPESCAFRDELVQHPQAEKVHLHHSSTGTRLELARLLADIEPGTHVYTCGPEALIEAVRSEAARLDIAADTLHFEQFAIEDKTGDAFTLVLARSGKEFVVPEEMTILQVIENNKAAKVECLCREGVCGTCETAILEGEADHRDQYFSDEERASQQSMLICCSRAQGKRLVLDL
Q: With B1 as the molecule, how does the residual L-carnitine depletion activity (wild type = 100%) [4] read?
A: 30%

Q: What about the residual O2 depletion activity (wild type = 100%) [4] of the same molecule?
A: 30%

B2: YeaX variant K313E (enzyme)
chain: B1 chain with Q313E
Q: With B2 as the molecule, how does the residual L-carnitine depletion activity (wild type = 100%) [4] read?
A: 7%

Q: And the residual O2 depletion activity (wild type = 100%) [4]?
A: 11%

B3: YeaX variant D320N (enzyme)
chain: B1 chain with Q313K, D320N
Q: With B3 as the molecule, how does the L-carnitine depletion activity (wild type = 100%) [5] read?
A: 9%

Q: What about the O2 depletion activity (wild type = 100%) [5] of the same molecule?
A: 11%

B4: YeaX variant D320K (enzyme)
chain: B1 chain with Q313K, D320K
Q: B4 was tested. Which residual L-carnitine depletion activity (wild type = 100%) [5] did it give?
A: 3%

Q: And the residual O2 depletion activity (wild type = 100%) [5]?
A: 7%

B5: CntB, reductase component of carnitine monooxygenase from Acinetobacter baumannii (enzyme)
chain: MASHYEMFPAVVTRVEQLTPLIKRFTFKRQDGQNFPRFSGGSHIIVKMNEQLSNAYSLMSCTQDLSTYQVCVRKDVEGKGGSVFMHDQCNEGCEIQISEPKNLFPLAETGNKHILIAGGIGITPFLPQMDELAARGAEYELHYAYRSPEHAALLDELTQKHAGHVFSYVDSEGSMLNLDELISSQPKGTHVYVCGPKPMIDAVIDCCNKHRYRDEYIHWEQFASTVPEDGEAFTVVLAKSNQEIEVQSNQTILQAIETLNIDVECLCREGVCGTCETAILEGEAEHFDQYLSDAEKASQKSMMICVSRAKGKKLVLDL
Q: Which results are given for B5?
A: Relative L-carnitine depletion activity of the chimeric enzyme (YeaX/YeaW = 100%) [6]: 20%; Relative O2 depletion activity of the chimeric enzyme (YeaX/YeaW = 100%) [6]: 4%

B6: YeaX variant R271K (enzyme)
chain: B1 chain with R271K, Q313K
Q: Which residual L-carnitine depletion activity (wild type = 100%) [7] does the source give for B6 here?
A: 80%

Q: And the residual O2 depletion activity (wild type = 100%) [7]?
A: 70%

B7: YeaX variant R271Q (enzyme)
chain: B1 chain with R271Q, Q313K
Q: How did the residual L-carnitine depletion activity (wild type = 100%) [7] turn out when B7 was run?
A: 4%

Q: What about the residual O2 depletion activity (wild type = 100%) [7] of the same molecule?
A: 11%

B8: YeaW, Rieske-type oxygenase component of carnitine monooxygenase from E. coli (enzyme, UniProt P0ABR7 1-374, looked up)
chain: T3 sequence
notes: primers run from the start to the stop codon; No cleavage of the tag is described; calculated molecular mass 45,463 Da; Carries a Rieske-type [2Fe-2S] cluster and a mononuclear [Fe] center; also called oxygenase YeaW; catalytic unit YeaW
Q: How did the “stoichiometry N” value [8] turn out when B8 was run?
A: 3
